# T1: ComZ (residues 31 to 554), Thermus thermophilus HB27 (Thermus thermophilus HB27, UniProt Q8KPZ1 31-554)
# T1 construct: Cloned into pET-22b (NcoI/XhoI); also called recombinant ComZ fragment; comZ-22b construct; source: E. coli T7 Express, purified (HisTrap HP, SEC); not shown: His6, C-terminal, kept
# T1 sequence (looked up): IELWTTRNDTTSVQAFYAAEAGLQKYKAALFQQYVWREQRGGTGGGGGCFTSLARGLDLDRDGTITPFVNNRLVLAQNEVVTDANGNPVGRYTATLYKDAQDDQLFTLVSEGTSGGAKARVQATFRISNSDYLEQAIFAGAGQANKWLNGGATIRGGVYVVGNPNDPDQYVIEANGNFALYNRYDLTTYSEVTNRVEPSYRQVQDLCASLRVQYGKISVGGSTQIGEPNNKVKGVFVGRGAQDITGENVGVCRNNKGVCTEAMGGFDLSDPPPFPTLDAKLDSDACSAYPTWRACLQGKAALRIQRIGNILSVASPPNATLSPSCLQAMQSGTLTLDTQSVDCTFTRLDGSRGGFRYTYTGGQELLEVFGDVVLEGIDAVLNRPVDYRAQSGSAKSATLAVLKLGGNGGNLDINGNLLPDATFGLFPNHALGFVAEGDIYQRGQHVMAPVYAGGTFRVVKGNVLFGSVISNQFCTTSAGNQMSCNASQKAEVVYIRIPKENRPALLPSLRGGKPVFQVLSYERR
# What was measured:
# [1] = target: T1, ComZ (residues 31 to 554), Thermus …; assay: ITC; MicroCal PEAQ-ITC; 20 aliquots of 2 μl PilA2 (314 μM) titrated into 300 μl ComZ (33 μM), 25°C; fitted assuming a single binding site; settings: both partners purified
# [2] = target: the molecule itself; assay: SEC; HiLoad 16/600 Superdex 200 PG, 1 ml/min, 25 mM Tris-HCl pH 8.0, 200 mM NaCl, 5% glycerol; proteins incubated together at 4°C for 30 min before the run; each protein also run alone; peaks checked by SDS-PAGE
Binder,Kd [1] [nM],dH [1] [kcal/mol],stoichiometry N [1],binding result [2]
"PilA2 soluble domain (residues 33 to 193), Thermus thermophilus HB27 (domain or fragment, UniProt Q72JC3 33-193, looked up, Synthetic gene (GeneArt), codon-optimised for E. coli, in pET-22b (BamHI/XhoI); also called recombinant PilA2; source: E. coli Lemo21(DE3), purified (StrepTrap HP, SEC); not shown: Strep-tag II, C-terminal, kept) RASAQARFATDAKAAAVQVLERRSAEVLKSEIVPALSPYKDAPLDPDNPSGNWRSFYFVDYYFSCPTRVAPSPKQRGGSVANLRPGLTCSGTETIFGIPVAWDIRGENGILGEGVVTVVVTATHPRGPKVTLGRRVTCYDVYPSPTQDQPAPCPPPGGGRP",690,2.3,1.1,–
"PilA3 soluble domain (residues 33 to 233), Thermus thermophilus HB27 (domain or fragment, UniProt Q72JC2 33-233, looked up, Synthetic gene (GeneArt), codon-optimised for E. coli, in pET-22b (BamHI/XhoI); source: E. coli Lemo21(DE3), purified (StrepTrap HP, SEC); not shown: Strep-tag II, C-terminal, kept) ELARNTQARSELQDRVRMVMQVVTADLQMAGARYWNSGNQNQAFSLPLPPLSGSNMGPKDTLTLYYVTSLRDLASACRRVDYGFEGDTLRRSDVNATPSSGSDCTTPPPNSQPLAEGMLALDIQYQCSDGSRKDTPDCGTDAYPRSAKVTVAGYSLTSVTNPGPASLTTVTGKTLACPQGRACYALTQEVLMPNLKPLPTP",–,–,–,binds

# — publication PMC6561018, “Structure and Properties of a Natural Competence-Associated Pilin Suggest a Unique Pilus Tip-Associated DNA Receptor” (mBio, 2019)
